Experimental data published in patent US20250304621A1, “POLYPEPTIDE FOR SPECIFICALLY BLOCKING BINDING OF ACVR1C TO GREM1 AND USE THEREOF” (The Seventh Affiliated Hospital, Sun Yat-Sen University, priority 2024, published 2025).
“Also recorded” adds a separate entry of the source.

B1: truncated ACVR1C-ECD lacking amino acids 68-113 (A4) (receptor)
chain: ELSPGLKCVCLLCDSSNFTCQTEGACWASVMLTNGKEQVIKSCVSLP

Assays:
[1] = molecular target: T1, binding of GREM1 to ACVR1C (Homo sapiens, UniProt O60565); assay: Pull-down experiment: Fc-tagged ACVR1C-ECD and his-tagged full-length GREM1 with ACVR1C peptide; conditions: purified Fc-tagged ACVR1C-ECD (AA 1-113) and his-tagged full-length GREM1; FIG. 11b
T1 construct: his-tagged full-length GREM1 were purified; His; made in house
T1 sequence (O60565 25-184): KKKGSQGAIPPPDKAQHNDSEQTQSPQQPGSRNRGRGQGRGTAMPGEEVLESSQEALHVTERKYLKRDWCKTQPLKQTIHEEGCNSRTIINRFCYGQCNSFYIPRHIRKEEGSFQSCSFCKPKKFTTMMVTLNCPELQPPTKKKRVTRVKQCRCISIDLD
Procedure: The Fc-tagged ACVR1C extracellular domain (ACVR1C-ECD, AA 1-113) and his-tagged full-length GREM1 were purified, and ACVR1C peptide (with an amino acid sequence of TECCFTDFCNNITLHLPTA, SEQ ID NO: 7) which blocked the binding of ACVR1C to GREM1 ligand thereof was synthesized (FIG. 11a). The Pull-down experiment was performed.

[2] = system: HCT116-luc cells (colorectal liver metastasis); assay: Colorectal liver metastasis model: HCT116-luc cells injected through the spleen, live bioluminescence imaging; format: in vivo; conditions: NOG mice, PLV-GREM1 HCT116-luc cells via spleen, 10 mg/kg by tail vein once every 2 days
Procedure: Grouping: a total of 18 6-week-old NOG mice were taken and randomized into 3 groups 5 days after adaptive feeding: control group (PLV), GREM1 overexpression group (PLV-GREM1) and ACVR1C polypeptide treatment group (PLV-GREM1+ACVR1C peptide), 6/group.
Modeling: HCT116-luc cell suspensions were prepared with cell densities adjusted to 1×10^7 cells/mL. The mice to be treated were taken out and anesthetized by intraperitoneal injection of 2% sodium pentobarbital at a dose of 45 μL/20 g. After about 5 minutes, the mice began to enter a quiet state. White gauze was spread on a mouse board, the mice were placed in left lying position, the abdominal hair of the mice was shaved, and the abdominal side was disinfected from the neck to the groin with alcohol cotton pads. The skin was cut open 1-2 cm below the lower edge of the left costal arch to expose the abdominal wall muscles. The abdominal wall muscles were pulled with pointed forceps to avoid the spleen in the abdominal cavity. The abdominal wall muscles were cut open to expose the internal organs. The pancreas was gently pulled with circular forceps, and the spleen was pulled out. […]

GREM1 = molecular target: T2, GREM1 (Homo sapiens (Human), UniProt O60565 25-184, limits assumed); assay: co-IP in HCT116 cells
T2 construct: also called Gremlin1
T2 sequence: T1 sequence (O60565 25-184)
Text: To further describe the binding sites between GREM1 and ACVR1C, a truncated GREM1 and ACVR1C extracellular domain (ACVR1C-ECD) is constructed.

Row | Molecule | inhibition of the binding of GREM1 to ACVR1C (pull-down) [1] | inhibition of liver metastasis of colorectal cancer cells (bioluminescence imaging) ([2]; FIG. 12) | inhibition of liver metastasis of colorectal cancer cells (bioluminescence imaging) ([2]; FIG. 12, listed as polypeptide) | binding result (GREM1)
1 | TECCFTDFCNNITLHLPTA [ACVR1C peptide] | competitively inhibited the binding of GREM1 to ACVR1C; also recorded: can interfere or block the binding of GREM1 to ACVR1C | significantly lower than that in a control group | significantly inhibits liver metastasis of colorectal cancer cells; also recorded: significantly inhibit the colorectal cancer metastasis | –
2 | B1 | – | – | – | no binding
